Source: US20240032514A1 (RENGENE BIOTECHNOLOGY, published 2024)
Numbering of substitutions follows the chain as printed. Names and notes keep the numbering of the source. Where two headings read alike, the source gives them in different places.

Assays:
human C-reactive protein [1] = target: T1, human C-reactive protein (human, UniProt P02741 19-224)
T1 construct: also called CRP; antigen CRP
T1 sequence (looked up): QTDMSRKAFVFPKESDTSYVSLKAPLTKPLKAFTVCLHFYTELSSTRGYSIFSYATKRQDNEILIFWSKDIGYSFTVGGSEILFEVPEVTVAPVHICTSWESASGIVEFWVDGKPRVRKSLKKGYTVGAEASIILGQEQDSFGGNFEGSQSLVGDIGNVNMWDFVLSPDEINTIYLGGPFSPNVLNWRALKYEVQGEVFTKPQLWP

human C-reactive protein [2] = target: T1, human C-reactive protein; assay: ELISA, CRP coated at 2 µg/mL
human C-reactive protein [3] = target: T1, human C-reactive protein; assay: BLI (FORTEBIO-OCTET), antibody at 10 µg/mL, CRP at 200-3.13 nM
OVA = target: T2, OVA (UniProt P01012 2-386); assay: ELISA, protein coated at 2 µg/mL, antibody in gradient dilution
T2 construct: Control protein coated at 2 µg/mL; also called unrelated protein OVA
T2 sequence (looked up): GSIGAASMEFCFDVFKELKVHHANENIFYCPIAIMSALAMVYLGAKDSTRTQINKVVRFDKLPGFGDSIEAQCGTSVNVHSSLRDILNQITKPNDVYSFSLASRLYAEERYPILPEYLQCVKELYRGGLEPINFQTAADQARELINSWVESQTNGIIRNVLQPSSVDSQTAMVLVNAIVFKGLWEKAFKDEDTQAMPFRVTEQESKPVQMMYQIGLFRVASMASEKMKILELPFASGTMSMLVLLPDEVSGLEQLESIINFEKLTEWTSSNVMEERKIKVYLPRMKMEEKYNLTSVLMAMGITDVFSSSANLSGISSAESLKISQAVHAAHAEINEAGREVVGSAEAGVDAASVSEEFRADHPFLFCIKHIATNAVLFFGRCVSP

BSA = target: T3, BSA (UniProt P02769 25-607); assay: as above
T3 construct: Control protein coated at 2 µg/mL; also called unrelated protein BSA
T3 sequence (P02769 25-607 limits assumed): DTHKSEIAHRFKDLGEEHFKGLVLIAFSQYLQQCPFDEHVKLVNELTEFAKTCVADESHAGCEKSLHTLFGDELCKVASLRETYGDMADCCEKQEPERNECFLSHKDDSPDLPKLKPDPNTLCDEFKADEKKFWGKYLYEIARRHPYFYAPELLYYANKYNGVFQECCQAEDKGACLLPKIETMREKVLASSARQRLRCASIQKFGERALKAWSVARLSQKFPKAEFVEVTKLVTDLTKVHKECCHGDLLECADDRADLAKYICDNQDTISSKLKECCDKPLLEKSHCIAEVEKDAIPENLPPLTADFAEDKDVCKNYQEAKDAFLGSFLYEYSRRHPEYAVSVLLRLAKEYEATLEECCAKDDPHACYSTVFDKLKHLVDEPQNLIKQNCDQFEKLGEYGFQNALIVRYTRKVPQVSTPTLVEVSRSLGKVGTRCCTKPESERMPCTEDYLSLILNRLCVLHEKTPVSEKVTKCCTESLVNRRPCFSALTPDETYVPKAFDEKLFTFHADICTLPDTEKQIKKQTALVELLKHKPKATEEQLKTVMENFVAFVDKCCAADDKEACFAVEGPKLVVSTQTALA

B1: G3-35 (VHH)
VHH: EVQLQQSGPELVKPGASVRMSCKASGYTFTDYNIHWVKQSHGESLEWIGFVNPDNGDTYYYKNFKGKATLTFNRSSSTAYMDLRSLTSEDSAVYYCARGTTVEKDYWGQGTTLTVSS
Human C-reactive protein [1]
  binding result: binds

B2: G3-23 (VHH)
VHH: B1 VHH with L11V, V12L, A16T, H41R, N55T, T112I
Human C-reactive protein [1]
  binding result: binds

B3: G3-71 (VHH)
VHH: B1 VHH with V51I, K65R, F72L, R74K, A92G, T112I
Human C-reactive protein [1]
  binding result: binds

B4: D4-12 heavy chain antibody variable region (VHH)
VHH: EVQLQQSGPELVKPGASVKISCKASGYMFSDYYMNWVKQSHGKSLEWIGNVDPNTDNTIYNQNFKDKATLTVDRSSRTAYMELHSLTSEDSAVYYCARSRFYDPWFAYWGQGTLVTVSA
Human C-reactive protein [2]
  binding result: binds

B5: D5S-12 heavy chain antibody (VHH)
VHH: EVKLLESGGGLVKPGGSLKLSCAASGFTFSDYGMSWIRQTPDKRLEWVATISSGNTYTYYSKSVKGRFTISRDNAKNTLYLQMSSLKSEDTAIYYCSRHTSDYYPLSQGTLVTVSA
Human C-reactive protein [3]
  Kd: 0.987 nM
  koff: 8.44e-05 s⁻¹
  kon: 85500 M⁻¹ s⁻¹
OVA
  binding result: no binding
BSA
  binding result: no binding
